# From patent publication US20090170069
# Biological target: T1, NFluc-Pum2 (pumilio domain) (UniProt Q8TB72)
# T1 sequence: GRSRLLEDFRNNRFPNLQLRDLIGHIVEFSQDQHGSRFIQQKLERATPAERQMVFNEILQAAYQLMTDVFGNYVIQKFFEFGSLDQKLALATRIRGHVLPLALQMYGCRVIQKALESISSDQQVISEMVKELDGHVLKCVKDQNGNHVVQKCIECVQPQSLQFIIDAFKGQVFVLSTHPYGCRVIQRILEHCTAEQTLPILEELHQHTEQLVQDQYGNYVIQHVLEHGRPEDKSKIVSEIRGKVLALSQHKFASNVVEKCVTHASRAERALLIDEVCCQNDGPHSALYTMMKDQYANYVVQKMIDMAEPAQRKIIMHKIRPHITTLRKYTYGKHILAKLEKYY
# Details: ternary with CFluc-Ago
sequence,measurement,value
CAUGGUGUAUAUAGUCUUUUGAUAUAGCGGC / CUAUAUACACCAUGUU [Pum target RNA + Pum1 guide],activity (fold luminescence vs controls),3
